B1: Adagio protein 1 (Arabidopsis thaliana (Mouse-ear cress)), Q94BT6 (parent)
chain: MEWDSGSDLSADDASSLADDEEGGLFPGGGPIPYPVGNLLHTAPCGFVVTDAVEPDQPIIYVNTVFEMVTGYRAEEVLGGNCRFLQCRGPFAKRRHPLVDSMVVSEIRKCIDEGIEFQGELLNFRKDGSPLMNRLRLTPIYGDDDTITHIIGIQFFIETDIDLGPVLGSSTKEKSIDGIYSALAAGERNVSRGMCGLFQLSDEVVSMKILSRLTPRDVASVSSVCRRLYVLTKNEDLWRRVCQNAWGSETTRVLETVPGAKRLGWGRLARELTTLEAAAWRKLSVGGSVEPSRCNFSACAVGNRVVLFGGEGVNMQPMNDTFVLDLNSDYPEWQHVKVSSPPPGRWGHTLTCVNGSNLVVFGGCGQQGLLNDVFVLNLDAKPPTWREISGLAPPLPRSWHSSCTLDGTKLIVSGGCADSGVLLSDTFLLDLSIEKPVWREIPAAWTPPSRLGHTLSVYGGRKILMFGGLAKSGPLKFRSSDVFTMDLSEEEPCWRCVTGSGMPGAGNPGGVAPPPRLDHVAVNLPGGRILIFGGSVAGLHSASQLYLLDPTEDKPTWRILNIPGRPPRFAWGHGTCVVGGTRAIVLGGQTGEEWMLSELHELSLASYLT

Variants of: B1
Details: with skp1a_arath SKP1A

Row | Variant | effect of a mutation on the interaction
1 | L200A | decreasing interaction
2 | L213A | decreasing interaction
